This is an account of results in patent US11535650 (RA PHARMACEUTICALS, dated 2022).

B1: R3142 (peptide)
peptide: Ac-CVERFCDVY[Trp(7-aza)]EYP-NH2
modifications: linker 1-6 via mXylyl″
B2: R3147 (peptide)
peptide: Ac-CVERFCDVYWEF[Pra]-NH2
modifications: linker 1-6 via mXylyl″
B3: R3020 (peptide)
peptide: MCSERYCEVRWEY-NH2
modifications: linker 2-7 via mXylyl
B4: R3166 (peptide)
peptide: Ac-CAERFCD[Tle]Y[Trp(7-aza)]EYP[Phg][Lys‑C8]-NH2
modifications: linker 1-6 via mXylyl″
B5: R3033 (peptide)
peptide: Ac-[Nva]C[Phg]A[Trp(7-aza)]EY[NMeS]HC[Nva]-NH2
modifications: linker 2-10 via mXylyl
B6: R3141 (peptide)
peptide: Ac-CVERFCDVYWEFP-NH2
modifications: linker 1-6 via mXylyl″
B7: R3146 (peptide)
peptide: Ac-C[Tle]ERFCDVYWEF-NH2
modifications: linker 1-6 via mXylyl″
B8: R3143 (peptide)
peptide: CVERFCDGYWEYP
modifications: [mXylyl(1,6)]Ac-C-V-E-R-F-C-D-Tbg-Y-W-E-Y-P-NH2
B9: R3162 (peptide)
peptide: Ac-CAERFCD[Tle]Y[Trp(7-aza)]EYP[dPhg]K-NH2
modifications: linker 1-6 via mXylyl″
B10: R3032 (peptide)
peptide: Ac-[Nva]CAT[Trp(7-aza)]EY[NMeS]HC[Nva]-NH2
modifications: linker 2-10 via mXylyl
B11: R3154 (peptide)
peptide: Ac-CVEAFCD[Tle]Y[Trp(7-aza)]EYP[dPhg][Nva]-NH2
modifications: linker 1-6 via mXylyl″
B12: R3164 (peptide)
peptide: Ac-CAERFCD[Tle]Y[Trp(7-aza)]EYP[Phg][Lys‑C12]-NH2
modifications: linker 1-6 via mXylyl″
B13: R3037 (peptide)
peptide: Ac-[Nva]C[Phg]T[Trp(7-aza)]EY[NMeA]HC[Nva]-NH2
modifications: linker 2-10 via mXylyl
B14: R3151 (peptide)
peptide: Ac-CVARFCD[Tle]Y[Trp(7-aza)]EYP[dPhg][Nva]-NH2
modifications: linker 1-6 via mXylyl″
B15: R3018 (peptide)
peptide: Ac-[Nva]CYEN[Tle]Y[Trp(7-aza)]ECP[Phg][Nva]-NH2
modifications: linker 2-10 via mXylyl
B16: R3035 (peptide)
peptide: Ac-[Nva]C[Phg]T[Trp(7-aza)]AY[NMeS]HC[Nva]-NH2
modifications: linker 2-10 via mXylyl
B17: R3017 (peptide)
peptide: Ac-[Nva]CYEN[Tle]YCEYP[Phg][Nva]-NH2
modifications: linker 2-8 via mXylyl
B18: R3161 (peptide)
peptide: Ac-CAERFCD[Tle]Y[Trp(7-aza)]EYP[Phg]K-NH2
modifications: linker 1-6 via mXylyl″
B19: R3015 (peptide)
peptide: Ac-C[Phg]T[Trp(7-aza)]EY[NMeS]HC-NH2
modifications: linker 1-9 via mXylyl
B20: R3022 (peptide)
peptide: Ac-[Nva]C[Phg]T[Trp(7-aza)]EY[NMeS]HC[Nva]P[Nva]-NH2
modifications: cysteine pairing not given here
B21: R3036 (peptide)
peptide: Ac-[Nva]C[Phg]T[Trp(7-aza)]EA[NMeS]HC[Nva]-NH2
modifications: linker 2-10 via mXylyl
B22: R3038 (peptide)
peptide: Ac-[Nva]C[Phg]T[Trp(7-aza)]EY[NMeS]AC[Nva]-NH2
modifications: linker 2-10 via mXylyl
B23: R3001 (peptide)
peptide: Ac-[Nva]CYEN[Tle]Y[Trp(7-aza)]EY[Sar][Nva][NMeS]-NH2
SMILES: CCC[C@H](NC(C)=O)C(=O)N[C@@H](CS)C(=O)N[C@@H](Cc1ccc(O)cc1)C(=O)N[C@@H](CCC(=O)O)C(=O)N[C@@H](CC(N)=O)C(=O)N[C@H](C(=O)N[C@@H](Cc1ccc(O)cc1)C(=O)N[C@@H](Cc1c[nH]c2ncccc12)C(=O)N[C@@H](CCC(=O)O)C(=O)N[C@@H](Cc1ccc(O)cc1)C(=O)N(C)CC(=O)N[C@@H](CCC)C(=O)N(C)[C@@H](CO)C(N)=O)C(C)(C)C
B24: R3034 (peptide)
peptide: Ac-[Nva]C[Phg]TAEY[NMeS]HC[Nva]-NH2
modifications: linker 2-10 via mXylyl
B25: R3149 (peptide)
peptide: Ac-CAERFCD[Tle]YWEYP[dPhg][Nva]-NH2
modifications: linker 1-6 via mXylyl″
B26: R3013 (peptide)
peptide: Ac-[Nva]C[Phg]T[Trp(7-aza)]EY[NMeS]HC-NH2
modifications: linker 2-10 via mXylyl
B27: R3156 (peptide)
peptide: Ac-CVERACD[Tle]Y[Trp(7-aza)]EYP[dPhg][Nva]-NH2
modifications: linker 1-6 via mXylyl″
B28: R3028 (peptide)
peptide: Ac-[Tle]Y[Trp(7-aza)]EYP[Phg][Nva]-NH2
SMILES: CCC[C@H](NC(=O)[C@@H](NC(=O)[C@@H]1CCCN1C(=O)[C@H](Cc1ccc(O)cc1)NC(=O)[C@H](CCC(=O)O)NC(=O)[C@H](Cc1c[nH]c2ncccc12)NC(=O)[C@H](Cc1ccc(O)cc1)NC(=O)[C@@H](NC(C)=O)C(C)(C)C)c1ccccc1)C(N)=O
B29: R3155 (peptide)
peptide: Ac-CVERACD[Tle]Y[Trp(7-aza)]EYP[Phg][Nva]-NH2
modifications: linker 1-6 via mXylyl″
B30: R3157 (peptide)
peptide: Ac-CVERFCA[Tle]Y[Trp(7-aza)]EYP[Phg][Nva]-NH2
modifications: linker 1-6 via mXylyl″
B31: R3172 (peptide)
peptide: Ac-CVERFC[NMeD][Tle]Y[Trp(7-aza)]EYP[Chg][Nva]-NH2
modifications: linker 1-6 via mXylyl″
B32: R3031 (peptide)
peptide: Ac-AC[Phg]T[Trp(7-aza)]EY[NMeS]HC[Nva]-NH2
modifications: linker 2-10 via mXylyl
B33: R3153 (peptide)
peptide: Ac-CVEAFCD[Tle]Y[Trp(7-aza)]EYP[Phg][Nva]-NH2
modifications: linker 1-6 via mXylyl″
B34: R3150 (peptide)
peptide: Ac-CVARFCD[Tle]Y[Trp(7-aza)]EYP[Phg][Nva]-NH2
modifications: linker 1-6 via mXylyl″
B35: R3019 (peptide)
peptide: Ac-[Nva]CYEN[Tle]Y[Trp(7-aza)]EYP[Phg][Nva]C-NH2
modifications: linker 2-14 via mXylyl
B36: R3016 (peptide)
peptide: Ac-C[Tle]Y[Trp(7-aza)]EY[NMeS]HC-NH2
modifications: linker 1-9 via mXylyl
B37: R3148 (peptide)
peptide: Ac-CAERFCD[Tle]YWEYP[Phg][Nva]-NH2
modifications: linker 1-6 via mXylyl″
B38: R3168 (peptide)
peptide: Ac-CVERFC[Ala(1H-tetrazol-5-yl)][Tle]Y[Trp(7-aza)]EYP[Chg][Nva]-NH2
modifications: linker 1-6 via mXylyl(3)
B39: R3158 (peptide)
peptide: Ac-CVERFCA[Tle]Y[Trp(7-aza)]EYP[dPhg][Nva]-NH2
modifications: linker 1-6 via mXylyl″

Starred links: 1 amine or outer side, 2 acyl side, 3 side chain; linkers in the order of their positions; H or OH if unused. Positions of bridges follow the written chain, without caps; N, C: chain ends. Non-standard residues stand in square brackets, D forms with d. Primed or numbered codes have the meaning given here. No end group written: not given here. Lys‑C8 = N-ε-caprylic lysine, CCCCCCCC(=O)NCCCC[C@H](N[*:1])C(=O)[*:2]; mXylyl(3) = bridging moiety between the two residues given in brackets; mXylyl″ = bridging moiety between the two marked residues; mXylyl = bridging moiety between residues (mXylyl(i,j)); Ala(1H-tetrazol-5-yl) = N[C@@H](Cc1nnn[nH]1)C(=O)O; Trp(7-aza) = N[C@@H](Cc1c[nH]c2ncccc12)C(=O)O; NMeD = CN[C@@H](CC(=O)O)C(=O)O; dPhg = N[C@@H](C(=O)O)c1ccccc1; Chg = N[C@H](C(=O)O)C1CCCCC1; Phg = N[C@H](C(=O)O)c1ccccc1; Tle = CC(C)(C)[C@H](N)C(=O)O; Lys‑C12 = N-ε-lauryl lysine; NMeS = CN[C@@H](CO)C(=O)O; NMeA = CN[C@@H](C)C(=O)O; Pra = C#CC[C@H](N)C(=O)O; Nva = CCC[C@H](N)C(=O)O; Sar = CNCC(=O)O

The target in this assay is human C5 protein (human, UniProt P01031 19-673; P01031 678-1676). Description: cell-based or functional assay.
As for B1, the “Avg. IC50, human hemolysis assay (complete human sera)” value (“Avg. IC50, human hemolysis assay” below) worked out at 44.6 nM.

B2: the “Avg. IC50, human hemolysis assay” value amounted to 138 nM.

Regarding B3, the “Avg. IC50, human hemolysis assay” value turned out to be 24.6 nM.

B4: the “Avg. IC50, human hemolysis assay” value was 17.5 nM.

For the molecule B5, the “Avg. IC50, human hemolysis assay” value stood at 131 nM.

For B6, the “Avg. IC50, human hemolysis assay” value came to 24.5 nM.

In the case of B7, the “Avg. IC50, human hemolysis assay” value came out at 107 nM.

Consider B8, for which the “Avg. IC50, human hemolysis assay” value is 18.6 nM.

With B9, the “Avg. IC50, human hemolysis assay” value came to 16.5 nM.

As to B10, the “Avg. IC50, human hemolysis assay” value was over 10000 nM.

Take B11: the “Avg. IC50, human hemolysis assay” value turned out to be 592 nM.

On to B12, for which the “Avg. IC50, human hemolysis assay” value was 36 nM.

For B13, the “Avg. IC50, human hemolysis assay” value worked out at 276 nM.

With B14, the “Avg. IC50, human hemolysis assay” value was found to be 165 nM.

As to B15, the “Avg. IC50, human hemolysis assay” value was over 5730 nM.

For B16, the “Avg. IC50, human hemolysis assay” value was over 50000 nM.

For B17, the “Avg. IC50, human hemolysis assay” value was over 100000 nM.

Turning to B18, the “Avg. IC50, human hemolysis assay” value came out at 7 nM.

Consider B19, for which the “Avg. IC50, human hemolysis assay” value was over 3960 nM.

Consider B20, for which the “Avg. IC50, human hemolysis assay” value is over 10200 nM.

In the case of B21, the “Avg. IC50, human hemolysis assay” value is over 50000 nM.

In the case of B22, the “Avg. IC50, human hemolysis assay” value amounted to 140 nM.

As to B23, the “Avg. IC50, human hemolysis assay” value worked out at 67.2 nM.

As for B24, the “Avg. IC50, human hemolysis assay” value is over 50000 nM.

Consider B25, for which the “Avg. IC50, human hemolysis assay” value was 13.6 nM.

B26: the “Avg. IC50, human hemolysis assay” value was 344 nM.

Consider B27, for which the “Avg. IC50, human hemolysis assay” value was over 10000 nM.

Take B28: the “Avg. IC50, human hemolysis assay” value is over 10000 nM.

Take B29: the “Avg. IC50, human hemolysis assay” value turned out to be 1530 nM.

For B30, the “Avg. IC50, human hemolysis assay” value worked out at 84.5 nM.

Consider B31, for which the “Avg. IC50, human hemolysis assay” value was determined as 12 nM.

Regarding B32, the “Avg. IC50, human hemolysis assay” value is 1090 nM.

Consider B33, for which the “Avg. IC50, human hemolysis assay” value is 175 nM.

B34: the “Avg. IC50, human hemolysis assay” value was found to be 32 nM.

Regarding B35, the “Avg. IC50, human hemolysis assay” value came to 1320 nM.

Turning to B36, the “Avg. IC50, human hemolysis assay” value was over 13000 nM.

Regarding B37, the “Avg. IC50, human hemolysis assay” value was found to be 8.5 nM.

Take B38: the “Avg. IC50, human hemolysis assay” value stood at 7.5 nM.

With B39, the “Avg. IC50, human hemolysis assay” value was 327 nM.
